Test results as given in publication PMC10237034 (Molecular Cell, 2023).

What was measured:
Assay in all cases: cryo-EM structure
histone H2B = histone H2B (X. laevis, UniProt P02281)
histone H4 = histone H4 (X. laevis, UniProt P62799)
TFIIH subunit XPB = TFIIH subunit XPB (human, UniProt P19447 1-782)
Chain of TFIIH subunit XPB (P19447 whole entry): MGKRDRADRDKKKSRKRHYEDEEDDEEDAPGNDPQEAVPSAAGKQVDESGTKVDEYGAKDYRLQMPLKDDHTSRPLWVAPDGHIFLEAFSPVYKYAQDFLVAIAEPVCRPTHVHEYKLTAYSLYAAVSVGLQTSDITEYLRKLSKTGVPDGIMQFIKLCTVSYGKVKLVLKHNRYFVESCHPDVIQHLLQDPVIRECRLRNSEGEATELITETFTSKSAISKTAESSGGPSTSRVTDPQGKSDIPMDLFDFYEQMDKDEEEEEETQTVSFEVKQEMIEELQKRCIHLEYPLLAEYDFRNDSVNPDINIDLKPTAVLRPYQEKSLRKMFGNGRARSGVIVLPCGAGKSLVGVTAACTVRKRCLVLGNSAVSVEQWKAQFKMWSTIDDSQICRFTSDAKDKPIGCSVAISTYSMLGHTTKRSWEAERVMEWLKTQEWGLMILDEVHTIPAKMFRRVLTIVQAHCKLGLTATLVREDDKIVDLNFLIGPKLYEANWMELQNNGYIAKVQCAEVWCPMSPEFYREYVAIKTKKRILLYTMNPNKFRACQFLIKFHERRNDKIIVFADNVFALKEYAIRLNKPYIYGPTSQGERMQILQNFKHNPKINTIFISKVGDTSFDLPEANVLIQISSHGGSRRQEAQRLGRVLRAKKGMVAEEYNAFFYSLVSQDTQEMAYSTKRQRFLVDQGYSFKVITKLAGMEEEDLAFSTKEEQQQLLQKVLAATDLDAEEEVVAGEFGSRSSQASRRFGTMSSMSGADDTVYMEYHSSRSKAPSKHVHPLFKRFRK

B1: TFIIH subunit p8 (natural protein)
chain: MVNVLKGVLIECDPAMKQFLLYLDESNALGKKFIIQDIDDTHVFVIAELVNVLQERVGELMDQNAFSLTQK
B1: binds (histone H2B); binds (histone H4).

B2: TFIIH subunit MAT1 (natural protein)
chain: MDDQGCPRCKTTKYRNPSLKLMVNVCGHTLCESCVDLLFVRGAGNCPECGTPLRKSNFRVQLFEDPTVDKEVEIRKKVLKIYNKREEDFPSLREYNDFLEEVEEIVFNLTNNVDLDNTKKKMEIYQKENKDVIQKNKLKLTREQEELEEALEVERQENEQRRLFIQKEEQLQQILKRKNKQAFLDELESSDLPVALLLAQHKDRSTQLEMQLEKPKPVKPVTFSTGIKMGQHISLAPIHKLEEALYEYQPLQIETYGPHVPELEMLGRLGYLNHVRAASPQDLAGGYTSSLACHRALQDAFSGLFWQPS
B2: binds (TFIIH subunit XPB).
